Where a chain is given by its changes, count along the chain named.
T1: Angiopoietin 1 (UniProt Q15389)
T1 chain: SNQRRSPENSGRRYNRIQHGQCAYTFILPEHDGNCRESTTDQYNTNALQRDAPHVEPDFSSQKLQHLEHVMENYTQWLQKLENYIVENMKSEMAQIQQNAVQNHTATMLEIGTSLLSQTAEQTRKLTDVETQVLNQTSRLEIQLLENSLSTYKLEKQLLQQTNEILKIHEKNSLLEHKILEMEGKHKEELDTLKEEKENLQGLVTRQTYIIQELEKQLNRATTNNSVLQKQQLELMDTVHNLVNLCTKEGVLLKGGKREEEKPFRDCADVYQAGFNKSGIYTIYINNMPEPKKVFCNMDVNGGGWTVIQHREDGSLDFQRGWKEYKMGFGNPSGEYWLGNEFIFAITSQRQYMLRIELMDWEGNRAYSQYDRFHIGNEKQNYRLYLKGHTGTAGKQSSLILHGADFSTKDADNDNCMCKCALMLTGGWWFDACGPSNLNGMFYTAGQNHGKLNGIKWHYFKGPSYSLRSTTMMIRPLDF

T2: Angiopoietin 2 (UniProt O15123)
T2 chain: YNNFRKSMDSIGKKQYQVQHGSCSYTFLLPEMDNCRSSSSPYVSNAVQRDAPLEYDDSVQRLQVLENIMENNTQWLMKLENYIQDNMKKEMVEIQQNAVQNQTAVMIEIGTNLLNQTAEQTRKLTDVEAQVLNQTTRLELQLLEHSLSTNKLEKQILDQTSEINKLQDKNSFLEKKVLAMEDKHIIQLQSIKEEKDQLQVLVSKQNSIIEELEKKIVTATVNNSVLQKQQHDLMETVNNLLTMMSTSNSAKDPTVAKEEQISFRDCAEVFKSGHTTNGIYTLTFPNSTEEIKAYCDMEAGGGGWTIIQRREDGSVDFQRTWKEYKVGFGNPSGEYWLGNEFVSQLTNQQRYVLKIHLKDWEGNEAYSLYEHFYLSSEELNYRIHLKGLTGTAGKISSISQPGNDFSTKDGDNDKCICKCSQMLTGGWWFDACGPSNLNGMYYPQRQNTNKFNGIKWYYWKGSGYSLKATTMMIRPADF

B1: HC2/LC2 (antibody, V domains shown)
VH: EVQLLESGGGLVQPGGSLRLSCAASGFTFSNYAMSWVRQAPGKGLEWVSVISPGSGNTYYADSVKGRFTISRDNSKNTLYLQMNSLRAEDTAVYYCAKGALKCRHRSCSSYNAMDVWGQGTLVTVSS
VL: QSVLTQPPSASGTPGQRVTISCTGSSSNIGNNDVSWYQQLPGTAPKLLIYDNNHRPSGVPDRFSGSKSGTSASLAISGLRSEDEADYYCGTWDASLNGYVFGGGTKLTVL
B2: HC4/LC4 (antibody, V domains shown)
VH: EVQLLESGGGLVQPGGSLRLSCAASGFTFSNYAMSWVRQAPGKGLEWVSAISHGGSSKYYADSVKGRFTISRDNSKNTLYLQMNSLRAEDTAVYYCARDRTASLLDGFDYWGQGTLVTVSS
VL: B1 VL with T23S, D33Y, S35N, D51A, N52D, N53S, H54N, N97S
B3: HC18/LC18 (antibody, V domains shown)
VH: EVQLLESGGGLVQPGGSLRLSCAASGFTFSDYDMSWVRQAPGKGLEWVSWISPDDGSIYYADSVKGRFTISRDNSKNTLYLQMNSLRAEDTAVYYCARSVLPFDYWGQGTLVTVSS
VL: B1 VL with T23S, N31S, D33A, S35Y, N52D, N53S, H54K, L79F, T91S, G98A
B4: HC10/LC10 (antibody, V domains shown)
VH: EVQLVESGGGLVQPGGSLRLSCAASGFTFSNYAMSWVRQAPGKGLEWVSWIYPDNGNTYYADSVKGRFTISRDNSKNTLYLQMNSLRAEDTAVYYCAKYSLDKYTPWPYSYYGMDVWGQGTLVTVSS
VL: B1 VL with D33A, S35T, N52D, N53S, V59A, N97S, G98A
B5: HC12/LC12 (antibody, V domains shown)
VH: B1 VH
VL: B1 VL
B6: HC8/LC8 (antibody, V domains shown)
VH: EVQLLESGGGLVQPGGSLRLSCAASGFTFSNYSMSWVRQAPGKGLEWVSAISPGNGNKYYADSVKGRFTISRDNSKNTLYLQMNSLRAEDTAVYYCAKGLSSLLLVGFDYWGQGTLVTVSS
VL: B1 VL with T23S, D51S, N52D, N53S, H54Q, T91S
B7: HC14/LC14 (antibody, V domains shown)
VH: B3 VH with R19G, F29L, D31N, D55S, G56S, I58T, L101M
VL: QSVLTQPPSASGTPGQRVTISCSGSSSNIGSNAVYWYQQLPGTAPKLLIYDDSKRPSGVPDRFSGSKSGTSASLAIGGLRSEDEADYYCGAWDDSLSAYVFGGGTKLTVL
B8: HC16/LC16 (antibody, V domains shown)
VH: EVQLLESGGGLVQPGGSLRLSCAASGFTFSDYYMSWVRQAPGKGLEWVSSISYDDGSRKYYADSGKRSVTISRDNSKNTLYLQMNSLRAEDTAVYYCARDRSTLRLDSFDYWGQGTLVTVSS
VL: B7 VL with Q16R, S27P, S31N, A33T, Y35N, D51S, K54H, G77S, D94Y, S97N
B9: HC22/LC22 (antibody, V domains shown)
VH: EVQLVQSGAEVKKPGASVKVSCKASGGTFSSYAISWVRQAPGQGLEWMGGIIPIFGTANYAQKFQGRVTITADESTSTAYMELSSLRSEDTAVYYCARGGSGRFDYWGQGTLVTVSS
VL: QSALTQPASVSGSPGESIIISCTGTSSDVGAYNYVSWYQQHLGKAPKLMIYDVSQRPSGVSDRFSGSKSGNTASLTISGLQAEDEADYYCSSFTGDSVIFGGGTKLTVL

Target: T1, Angiopoietin 1
Assay: competition, blocking Tie-2

Binder	IC50 [pM]
B1	230
B2	260
B3	240
B4	190
B5	380
B6	210
B7	740
B8	260
B9	240

Target: T2, Angiopoietin 2
Assay: competition, blocking Tie-2

Binder	IC50 [pM]
B1	60
B2	1350
B3	2850
B4	1220
B5	40
B6	200
B7	80
B8	320
B9	30
